Where two headings read alike, the source gives them in different places.
Columns and labels:
IL-6 signaling = IL-6 signaling (Homo sapiens, UniProt P05231); test: IL-6 Bioassay (Promega), luciferase reporter cells, inhibition of IL-6-induced cell signaling; format: cell-based; conditions: peptides incubated with IL-6 for 10 min, IL-6 0.5 nM, cells 6 hours
Description: To verify the ability of the peptides of the invention to inhibit IL-6-signaling, they were tested with the IL-6 Bioassay Kit (Promega). This kit includes human cells engineered to express the IL-6 receptor and a luciferase reporter driven by a response element. When IL-6 binds, the IL-6R transduces intracellular signals resulting in luminescence (fluorescence). Inhibition of IL-6 interaction with the receptor leads to the decrease of the luciferase expression and lower fluorescence.
The selected peptides were incubated with IL-6 for 10 min before being added to cell culture medium. […] Peptides 27 (2), 38 (2) and 45 (2) were also tested.
The ability of peptides to inhibit IL-6 signaling pathway was tested with the IL-6 Bioassay from Promega (cat #JA2501). The bioluminescent signal is detected and quantified using Bio-Glo™ Luciferase Assay System. Different concentrations of the test peptides were mixed with IL-6 (0.5 nM) and added to the IL-6 Bioassay Cells according to the manufacturer's instructions. Cells were incubated for 6 hours in a humidified incubator at 37° C. and 5% CO2 concentration. Following incubation, 75 microliters of the Bio-Glo™ Reagent was added to the cell culture and the luminescence was measured with a Biotek Synergy HTX plate reader. Data was analyzed according to manufacturer's recommendations.

IL-6 = molecular target: T1, IL-6 (Homo sapiens, UniProt P05231); test: Biacore surface plasmon resonance binding of peptides to immobilised IL-6; conditions: Table 2, mutation combinations; N terminus acetylated, C terminus amidated; nd = not detected; read-out: KD (nM) P < 0.05
T1 construct: purchased R&D Systems BT7270B
Text: Two DNA fragments were amplified from a synthetic fragment of the IL-6R. The 5′ fragment was amplified with forward primer and a mixture of 432 reverse primers, each containing an overhang of 6 codons. The 3′ fragment was amplified with a mixture of 432 forward primers, also containing overhangs of six degenerate codons and the reverse primer. Either the first or the second nucleotide of each codon was replaced with a degenerate base. Following PCR amplification, DNA fragments were phosphorylated and ligated leading to various sequence rearrangements shown at the bottom of the FIG. 3. Four hundred thirty-two forward and reverse oligos with an overhang of 6 codons from the IL-6R binding domain were used for PCR. A degenerate nucleotide was inserted at the first or second position of each codon. When ligated, these sequences generated a library of 1×10^13 different DNA sequences. The library of DNA sequences was taken through eight rounds of mRNA Display generating a peptide library. Eighteen of the most abundant peptides in the peptide library were synthesized in a linear form and tested for binding to IL-6 using Biacore. One of the peptides (#9) (“Peptide 9”) from the peptide library, with the sequence of […] The twelve non-terminal residues represent the PepFusion library-derived DNA sequences, while N-terminal serine and C-terminal glycine come from the flanking linkers and were kept as a precaution, in case linker sequences contributed to peptide interaction with its target.
Binding reactions were performed in HBS-P/2% DMSO buffer (10 mM Hepes, pH 7.4, 150 mM NaCl, 0.05% P-20, 2% DMSO), which was filtered through […] filters and degassed before use. Biotinylated recombinant human IL-6 (IL-6-Biotin) was bound to the surface of a Biacore SA sensor chip of a Biacore T200 surface plasmon resonance unit as follows. The streptavidin surface of the chip (flow cells 1 and 2) was activated by injecting 20 μl of 1 M NaCl/50 mM NaOH at 20 μl/min, in 3 pulses. Biotinylated Recombinant Human IL6 was diluted with HBS-P buffer and an aliquot of 100 μl (2 micrograms/ml) was injected into flow cell 2 at 5 microliters/min to yield a signal of 1400 response units (RU) (10 microliters were injected). Any remaining activated residues on the streptavidin surface of flow cells 1 and 2 were blocked with 30 microliters 500 nM free Biotin.
(§1) Affinity scouting assay was performed at a flow rate of 30 microliters/min at 25° C. The analyte (60 microliter aliquots of peptides, at concentrations of 20 μM in HBS-P/2% DMSO buffer) was injected into flow cells 1 and 2 and the association reaction was recorded. The surface was then washed with HBS-P/2% DMSO for 3 min and the dissociation of the analyte from the bound IL6 was followed over time. The surfaces of the flow cells were regenerated with 30 microliters of 10 mM NaOH, followed 50 microliters of HBS-P/2% DMSO buffer.
as §1, with “Kinetics analysis of binding was performed” for “Affinity scouting assay was performed”, “concentrations of 0, 1.25 μM, 2.5 μM, 5 μM, 10 μM and 20 μM” for “concentrations of 20 μM”, “DMSO buffer. Sensorgrams were analyzed using BIAeveluation 3.2.1 software (Cytiva). Values from the reference flow cell were subtracted to obtain the values for specific binding. Data were globally fitted to the Langmuir model for a 1:1 mass transfer binding.” for “DMSO buffer.”

[1] = molecular target: T2, Biotinylated recombinant human IL-6 (human, UniProt P05231 30-212, biotinylated (sites not given)); test: SPR (Biacore), IL-6 on chip
T2 construct: In the cell bioassay IL-6 (0.5 nM) was used in solution; also called Interleukin-6; IL-6-Biotin

[2] = molecular target: T2, Biotinylated recombinant human IL-6; test: cell-based or functional assay
[3] = molecular target: T2, Biotinylated recombinant human IL-6; test: SPR (Biacore), IL-6 on chip; remark: listed apart in the source

Sequence of IL-6 signaling (P05231 30-212): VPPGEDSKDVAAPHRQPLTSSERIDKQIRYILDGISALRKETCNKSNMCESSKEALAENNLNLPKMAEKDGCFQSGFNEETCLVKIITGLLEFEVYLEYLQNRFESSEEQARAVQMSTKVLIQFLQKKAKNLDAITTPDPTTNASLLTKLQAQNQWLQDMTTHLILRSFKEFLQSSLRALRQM

| IC50 (IL-6 signaling) [nM] | Kd (IL-6) [nM] | Kd [1] [nM] | IC50, inhibition of IL-6-induced cell signaling (IL-6 Bioassay, luciferase reporter cells) [2] [µM] | Kd [3] [nM] | Molecule |
| --- | --- | --- | --- | --- | --- |
| 85 |  |  |  |  | Ac-SVRDLLRRMCHIVG-NH2 [9(2), SVRDLLRRMCHIVG] |
| 1200 |  |  |  |  | Ac-SFRDLIRMMKVCVG-NH2 [Peptide 90, SFRDLIRMMKVCVG] |
| 580 | 580 ± 156 |  |  |  | Ac-SVRDLLRRMKVCVG-NH2 [27(2), SVRDLLRRMKVCVG] |
|  |  | 59 | 16.8 | 50 | Ac-TIRDLIRMMKVCVG-NH2 [Peptide 100] |
|  |  | 354 | 0.0854 | 300 | Ac-SVRDLLRRMCHIVG-NH2 (peptide 9 with protected termini) [Peptide 9 (2)] |
|  |  | 42 | 1.2 | 30 | Ac-SFRDLIRMMKVCVG-NH2 [Peptide 90] |

Reference: US20250277208A1, “Method of Peptide Library Construction and Peptides Thereof” (Alcamena Stem Cell Therapeutics, LLC, priority 2024, published 2025)
